Where two headings read alike, the source gives them in different places.
Legend:
HeLa cells [1] = test: Confocal imaging of R-CatchER with ER-tracker green; assay type: cell-based
Experimental: Confocal imaging of R-CatchER. HeLa cells were transfected with R-CatchER two days before fixing. Cells were fixed with 3.7% Thermo Scientific™ Pierce™ 16% Formaldehyde (w/v), methanol-free, and permeabilized with 0.1% Triton X-100. Cells were then stained with ER-Tracker green (Invitrogen) and with ProLong gold antifade mountant with DAPI (Invitrogen) for staining the nucleus. Confocal imaging then was performed using a Zeiss LSM 700 confocal laser scanning microscope (CLSM).

HeLa cells [2] = test: In situ Ca^2+ binding affinity in HeLa cells with stepwise Ca^2+ concentrations; assay type: cell-based
Experimental: (§1) Cell culture and transfection. C2C12, HEK293 and HeLa cells were cultured and maintained in Dulbecco's modified Eagle's medium (DMEM) supplemented with 10% fetal bovine serum (FBS) and high glucose (4.5 g/L) at 37° C. R-CatchER, G-CatchER2, G-CEPIA1er, R-CEPIA1er or R-CatchER with GFP-CaSR (wt and mutations) were transfected into cells using Lipofectamine 3000 (Life Technologies), following the manufacturer's instructions. Seed cells onto sterilized 22 mm×40 mm glass microscope slides in 6 cm dishes until about 70% confluency, the day of transfection. The next day, 2 μg of plasmid were mixed with transfection reagent in the reduced serum media Opti-MEM for 4-6 h at 37° C. The media was then replaced with 3 mL of fresh DMEM and incubated at 37° C. for 48 h.

ER Ca^2+ = test: Quantitative basal/resting ER Ca^2+ measurement using R-CatchER; assay type: cell-based
HeLa cells [3] = assay type: cell-based
Experimental: as §1
HILO imaging of R-CatchER, G-CatchER2, R-CEPIA1er, and G-CEPIA1er. Samples were mounted in a perfusion chamber and imaged using a customized optical microscope based on a Nikon TiE inverted microscope equipped with a 100×TIRF objective (N.A. 1.49, Nikon) and a highly sensitive electron multiplying charge-coupled device (EMCCD) camera (Andor Ixon Ultra 888). A fiber-coupled 488 nm or 561 nm laser (LBX-488/LCX-561, Oxxius) was first collimated and then focused to the back focal plane of the TIRF objective using an achromatic optical lens of 200 mm focal length (AC254-200-A, Thorlabs). To achieve HILO imaging, the incident angle of the excitation laser was adjusted to be slightly smaller than the critical angles at the cell-coverslip interface through translational movement the optical axis of the incident light beam by a motorized stage (SGSP-20-20, Sigma Koki). An efficient excitation volume of few micrometers was obtained under HILO illumination. A quad-band filter set (TRF89901v2, Chroma) was used for filtering out the fluorescence background. Fluorescence images of samples were recorded at 1 Hz as the concentration of ER Ca^2+ was perturbed by perfusion of 3 μM Thapsigargin, 0.5 mM 4-cmc, 1 mM 4-cmc, 100 μM ATP, or 100 μM histamine.

[4] = Calcium (Ca^2+) binding assay: fluorescence/absorbance titration of purified protein
Method in brief: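 Purified mApple, EGFP and mCherry variants at 10 μM (mApple with 5 μM EGTA in 10 mM Tris, pH 7.4, triplicate) were titrated stepwise with Ca^2+. Fluorescence was followed across the titration, with absorbance spectra of Ca^2+-free and Ca^2+-loaded forms taken before and after. Affinity came from a 1:1 binding fit.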

[5] = Quantum yield, extinction coefficient, and brightness determination; assay type: physicochemical; set-up: key to Brightness: extinction coefficient × quantum yield
Experimental: Quantum yield, extinction coefficient, and brightness determination. The quantum yield values of all the variants were determined by measuring the emitted fluorescence intensities and absorbance intensities of the chromophore at different protein concentrations. The wildtype was used as a reference to calculate quantum yield. Brightness was defined as a visual perception in which a source appears to emit or reflect a given amount of light, which was obtained by multiplying the extinction coefficient and the quantum yield.

B1: R-CatchER: red genetically encoded Ca^2+ indicator, mApple A145E/K198D/R216D, SEQ ID NO: 12 (protein)
chain: EENNMAIIKEFMRFKVHMEGSVNGHEFEIEGEGEGRPYEAFQTAKLKVTKGGPLPFAWDILSPQFMYGSKVYIKHPADIPDYFKLSFPEGFRWERVMNFEDGGIIHVNQDSSLQDGVFIYKVKLRGTNFPSDGPVMQKKTMGWEESEERMYPEDGALKSEIKKRLKLKDGGHYAAEVKTTYKAKKPVQLPGAYIVDIDLDIVSHNEDYTIVEQYEDAEGRHSTGGMDELYK
HeLa cells [1]
  Pearson's Coefficient of colocalisation with ER-tracker green: 0.83
HeLa cells [2]
  Kd: 310 ± 50 µM
ER Ca^2+; 6-23 cells, 0.5 mM Ca^2+
  Basal [Ca^2+]ER: 735.0 ± 66.7 µM
ER Ca^2+; CaSR L173P, 1.8 mM Ca^2+
  Basal [Ca^2+]ER: 893.6 ± 67.6 µM
ER Ca^2+; CaSR P221L, 1.8 mM Ca^2+
  Basal [Ca^2+]ER: 477.7 ± 49.4 µM
ER Ca^2+; CaSR P221Q, 1.8 mM Ca^2+
  Basal [Ca^2+]ER: 674.6 ± 50.2 µM
ER Ca^2+; CaSR S820F, 1.8 mM Ca^2+
  Basal [Ca^2+]ER: 406.1 ± 41.4 µM
ER Ca^2+; GFP-CaSR, 0.5 mM Ca^2+
  Basal [Ca^2+]ER: 487.1 ± 48.2 µM
ER Ca^2+; HEK293 cells
  resting ER Ca^2+ concentration: 0.68 ± 0.22 mM
ER Ca^2+; HeLa cells
  resting ER Ca^2+ concentration: 0.59 ± 0.16 mM
ER Ca^2+; TT cells, 0.5 mM Ca^2+
  Basal [Ca^2+]ER: 539.0 ± 65.9 µM
HeLa cells [3]; 3 μM Thapsigargin (Tg), 0 mM Ca^2+
  fluorescence decrease ΔF/F: 0.69±0.07
HeLa cells [3]; 100 μM histamine
  half decay time of the first peak of ER Ca^2+ oscillations: 1.8 ± 0.1 s
  half rise time of the first peak of ER Ca^2+ oscillations: 7.3 ± 0.1 s
[4]; 1 mM Mg^2+, 150 mM KCl, 150 mM NaCl
  Ca^2+ induced fluorescence changes upon addition of other ions (metal selectivity): insensitive
[4]; EGFP and mApple variants
  Fmax/Fmin: 4.22
[4]; absorbance at 569
  Aholo/Aapo: 4.33 (569)
[4]; in vitro, Ca^2+ binding
  fluorescence dynamic range ΔF/F: 4.22±0.04
[4]; in vitro, purified protein, read-out: Kd for Ca^2+ binding
  Kd: 350 ± 30 µM
[4]; purified indicator, Ca^2+ binding
  Hill coefficient: 0.98
[4]; purified indicator, Ca^2+ induced fluorescence
  Dynamic Range: 4.2
[4]; purified indicator, Ca^2+, read-out: Kd
  Kd: 361 µM
[5]; Apo
  Brightness: 0.13 ± 0.02
  Extinction coefficient: 44000 M⁻¹ cm⁻¹
  Fluorescence quantum yield: 0.30 ± 0.02
[5]; Holo
  Brightness: 0.30 ± 0.03
  Extinction coefficient: 60000 M⁻¹ cm⁻¹
  Fluorescence quantum yield: 0.50 ± 0.03
  ε (holo) (×10^4) (M^−1 cm^−1): 6 ×10^4 M^−1 cm^−1
[5]; apo
  ε (apo) (×10^4) (M^−1 cm^−1): 4 ×10^4 M^−1 cm^−1
[5]; apo, quantum yield
  Φ (apo): 0.30
[5]; holo, quantum yield
  Φ (holo): 0.50

From patent publication US20240369485A1, “FLUORESCENT SENSOR FOR MONITORING CALCIUM DYNAMICS” (priority 2021, published 2024)
